Laboratory results: US20180291096A1 (Janssen / Centocor, published 2018)
Where a chain is given by its changes, count along the chain named.

T1: recombinant human IL-23 (hrIL-23), produced at Centocor (human, UniProt P29460 23-328)
T1 construct: p19-p40 heterodimer; also called rhIL-23; huIL-23
T1 sequence 1: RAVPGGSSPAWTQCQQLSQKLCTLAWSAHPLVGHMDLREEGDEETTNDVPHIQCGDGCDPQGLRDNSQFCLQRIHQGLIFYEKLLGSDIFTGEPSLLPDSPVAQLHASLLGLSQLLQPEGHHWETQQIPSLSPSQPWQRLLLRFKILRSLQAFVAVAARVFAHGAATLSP
T1 sequence 2: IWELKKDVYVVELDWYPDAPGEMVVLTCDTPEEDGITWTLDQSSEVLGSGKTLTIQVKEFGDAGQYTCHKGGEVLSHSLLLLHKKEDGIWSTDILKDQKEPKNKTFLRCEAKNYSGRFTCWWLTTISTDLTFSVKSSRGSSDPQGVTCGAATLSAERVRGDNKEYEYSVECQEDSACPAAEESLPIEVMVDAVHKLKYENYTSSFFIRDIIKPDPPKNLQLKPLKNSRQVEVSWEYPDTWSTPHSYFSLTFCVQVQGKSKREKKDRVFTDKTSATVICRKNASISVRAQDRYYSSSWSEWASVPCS

T2: recombinant human IL-12 (hrIL-12), produced at Centocor (human, UniProt P29459 23-219; P29460 23-328)
T2 construct: also called IL-12 CNTO
T2 sequence (looked up) 1: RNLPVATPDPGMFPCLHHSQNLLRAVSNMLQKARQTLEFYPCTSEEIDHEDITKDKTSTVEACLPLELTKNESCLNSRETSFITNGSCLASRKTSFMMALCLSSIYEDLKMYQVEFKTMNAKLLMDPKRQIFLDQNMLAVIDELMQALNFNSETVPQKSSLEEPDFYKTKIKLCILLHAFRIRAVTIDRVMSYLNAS
T2 sequence (looked up) 2: T1 sequence 2

B1: MOR05049 Fab (Fab, V domains shown)
VH: QVQLVESGGGLVQPGGSLRLSCAASGFTFSSFGMSWVRQAPGKGLEWVSGIEHKYLSYTTHYAASVKGRFTISRDNSKNTLYLQMNSLRAEDTAVYYCARYWGTPYLMQFDNWGQGTLVTVSS
VL: DIALTQPASVSGSPGQSITISCTGTSSDVGGYNSVSWYQQHPGKAPKLMIYSVSSRPSGVSNRFSGSKSGNTASLTISGLQAEDEADYYCSSYDTNKPLVVFGGGTKLTVL
notes: Fab
B2: MOR04658 Fab (Fab, V domains shown)
VH: QVQLVESGGGLVQPGGSLRLSCAASGFTFSSFGMSWVRQAPGKGLEWVSNISSSGSSTYYADSVKGRFTISRDNSKNTLYLQMNSLRAEDTAVYYCARYWGTPYLMQFDNWGQGTLVTVSS
VL: B1 VL
notes: Fab
B3: MOR05060 Fab (Fab, V domains shown)
VH: B2 VH
VL: B1 VL with S91G, T95V, N96Y, K97G, P98R, L99F, V100Y
notes: Fab
B4: MOR05061 Fab (Fab, V domains shown)
VH: B2 VH
VL: B1 VL with D94Y, T95F, N96Y, K97L, P98Q, L99R, V100I
notes: Fab
B5: MOR05052 Fab (Fab, V domains shown)
VH: B1 VH with G50S, H61F
VL: B1 VL
notes: Fab
B6: MOR05063 Fab (Fab, V domains shown)
VH: B2 VH
VL: B1 VL with S91G, Y93W, T95P, N96I, K97F, P98S, L99Y, V100E
notes: Fab
B7: MOR05056 Fab (Fab, V domains shown)
VH: B1 VH with G50S, T59A, H61Y, S65G
VL: B1 VL
notes: Fab
B8: MOR05062 Fab (Fab, V domains shown)
VH: B2 VH
VL: B1 VL with S91Q, S92T, D94Y, T95F, N96S, K97Y, P98S, L99G, V100P
notes: Fab
B9: MOR05055 Fab (Fab, V domains shown)
VH: B1 VH with G50N, S57G, T59A, H61V
VL: B1 VL
notes: Fab
B10: MOR04083 Fab (Fab, V domains shown)
VH: QVQLVQSGAEVKKPGSSVKVSCKASGGTFSNYAISWVRQAPGQGLEWMGGIIPMFGYANYAQKFQGRVTITADESTSTAYMELSSLRSEDTAVYYCARDIYAGMDVWGQGTLVTVSS
VL: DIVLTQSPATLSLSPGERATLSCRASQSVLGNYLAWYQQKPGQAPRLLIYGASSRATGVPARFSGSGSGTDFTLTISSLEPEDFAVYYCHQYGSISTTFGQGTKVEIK
notes: Fab
B11: MOR05028 Fab (Fab, V domains shown)
VH: B10 VH with M54V, Y57F, A58T, N59H
VL: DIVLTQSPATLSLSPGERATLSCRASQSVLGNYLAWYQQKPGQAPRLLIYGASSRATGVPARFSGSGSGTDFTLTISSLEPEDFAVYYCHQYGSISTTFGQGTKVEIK
notes: Fab
B12: MOR05038 Fab (Fab, V domains shown)
VH: QVQLVQSGAEVKKPGSSVKVSCKASGGTFSSNYISWVRQAPGQGLEWMGINAHLGGTWYAQKFQGRVTITADESTSTAYMELSSLRSEDTAVYYCARSKKGMYGGWTYPLMMFDLWGQGTLVTVSS
VL: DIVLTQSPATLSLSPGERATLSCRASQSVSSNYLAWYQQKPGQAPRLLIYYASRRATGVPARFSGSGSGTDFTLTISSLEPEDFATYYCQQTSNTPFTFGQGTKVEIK
notes: Fab
B13: MOR04190 Fab (Fab, V domains shown)
VH: QVQLVQSGAEVKKPGSSVKVSCKASGGTFSSNYISWVRQAPGQGLEWMGGIIPIFGHANYAQKFQGRVTITADESTSTAYMELSSLRSEDTAVYYCARSKKGMYGGWTYPLMMFDLWGQGTLVTVSS
VL: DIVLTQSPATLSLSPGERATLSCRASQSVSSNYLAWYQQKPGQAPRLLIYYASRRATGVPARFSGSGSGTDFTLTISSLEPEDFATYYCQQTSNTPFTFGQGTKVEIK
notes: Fab
B14: MOR05042 Fab (Fab, V domains shown)
VH: QVQLVQSGAEVKKPGESLKISCKGSGYSFSNYWIGWVRQMPGKGLEWMGIISPTGSSTWYSPSFQGQVTISADKSISTAYLQWSSLKASDTAMYYCARWYYKPFDVWGQGTLVTVSS
VL: DIVLTQPPSVSGAPGQRVTISCTGSSSNIGSGYDVHWYQQLPGTAPKLLIYGNSKRPSGVPDRFSGSKSGTSASLAITGLQSEDEADYYCSSWTPSSVVFGGGTKLTVL
notes: Fab
B15: MOR04649 Fab (Fab, V domains shown)
VH: B14 VH with S52D, T54S, G55N, S57Y, W59N
VL: B14 VL
notes: Fab
B16: MOR05045 Fab (Fab, V domains shown)
VH: B14 VH with S57A
VL: B14 VL
notes: Fab
B17: MOR04205 Fab (Fab, V domains shown)
VH: QVQLVQSGAEVKKPGESLKISCKGSGYSFTNYWISWVRQAPGKGLEWMGWIRPGDSDTRYSPSFEGQVTISADKSISTAYLQWSSLKASDTAMYYCARHYYGMDYWGQGTLVTVSS
VL: DIVLTQPPSVSGAPGQRVTISCSGSSSNIGSYYVNWYQQLPGTAPKLLIYGNTHRPSGVPDRFSGSKSGTSASLAITGLQSEDEADYYCQTYASLGPGEVFGGGTKLTVL
notes: Fab
B18: MOR04217 Fab (Fab, V domains shown)
VH: QVQLVESGGGLVQPGGSLRLSCAASGFTFSSYWITWVRQAPGKGLEWVSYISSSGSSTYYADSVKGRFTISRDNSKNTLYLQMNSLRAEDTAVYYCARGTFWSFGNYFANWGQGTLVTVSS
VL: DIVLTQSPATLSLSPGERATLSCRASQSIFYNLAWYQQKPGQAPRLLIYGASNRATGVPARFSGSGSGTDFTLTISSLEPEDFATYYCQQYSSEPVTFGQGTKVEIK
notes: Fab

Each binder was assayed against T1, recombinant human IL-23 (hrIL-23), … (assay: IL-23/IL-23R competition assay).

IC50 [pM]	Binder
390	B1
14000	B2
1000	B3
1250	B4
580	B5
320	B6
520	B7
1340	B8
790	B9

Target: T1, recombinant human IL-23 (hrIL-23), …
Test: IL-23/IL-23R competition assay
Remark: another data set of the same source

IC50 [pM]	Binder
7100	B10
430	B11
170	B12
1300	B13
60	B14
1200	B15
50	B16

What follows are binders tested against T1, recombinant human IL-23 (hrIL-23), … (assay: Biacore, Fab capture).

Kd [pM]	Binder
140000	B17
16000	B10
11000	B2
11000	B13
7000	B15
41000	B18

Each binder was assayed against T2, recombinant human IL-12 (hrIL-12), … (assay: not told).

binding result	Binder
no binding	B11
no binding	B1
no binding	B12
no binding	B14
no binding	B16

What follows are binders tested against T1, recombinant human IL-23 (hrIL-23), … (assay: SET).

Kd [pM]	Binder
7	B1
4300	B2
142	B3
58	B4
10	B5
69	B6
65	B7
98	B8
29	B9

Target: T1, recombinant human IL-23 (hrIL-23), …
Test: SET
Remark: another data set of the same source

Kd [pM]	Binder
1600	B10
133	B11
38	B12
4400	B13
4	B14
1100	B15
9	B16

Each binder was assayed against T1, recombinant human IL-23 (hrIL-23), … (assay: hrIL-23/hIL-23R competition assay).

IC50 [pM]	Binder
38000	B17
4600	B10
700	B2
4800	B13
200	B15
16000	B18
